Numbering of substitutions follows the chain as printed. Names and notes keep the numbering of the source.
B1: Murine norovirus MNV-1 capsid protein VP1, V339I escape mutant (in purified virions) (natural protein, murine norovirus (MNV-1, genotype GV.1), UniProt Q80J94 1-541, looked up)
chain: MRMSDGAAPKANGSEASGQDLVPAAVEQAVPIQPVAGAALAAPAAGQINQIDPWIFQNFVQCPLGEFSISPRNTPGEILFDLALGPGLNPYLAHLSAMYTGWVGNMEVQLVLAGNAFTAGKVVVALVPPYFPKGSLTTAQITCFPHVMCDVRTLEPIQLPLLDVRRVLWHATQDQEESMRLVCMLYTPLRTNSPGDESFVVSGRLLSKPAADFNFVYLTPPIERTIYRMVDLPVIQPRLCTHARWPAPVYGLLVDPSLPSNPQWQNGRVHVDGTLLGTTPISGSWVSCFAAEAAYKFQSGTGEVATFTLIEQDGSAYVPGDRAAPLGYPDFSGQLEIEIQTETTKTGDKLKVTTFEMILGPTTNADQAPYQGRVFASVTAAASLDLVDGRVRAVPRSIYGFQDTIPEYNDGLLVPLAPPIGPFLPGEVLLRFRTYMRQIDTADAAAEAIDCALPQEFVSWFASNAFTVQSEALLLRYRNTLTGQLLFECKLYNEGYIALSYSGSGPLTFPTDGIFEVVSWVPRLYQLASVGSLATGRMLKQ
notes: Capsid protein VP1 (~58 kDa; N-terminal, shell and protruding domains) of murine norovirus MNV-1, as it stands in the purified virion, with the escape mutation V339I on the C'D' loop; also called V339I mutant virus; apo V339I; source: BV-2 cells infected with the MNV-1 mutant; virions purified (PEG precipitation, ultracentrifugation, sucrose gradient); copies: 180
B2: Murine norovirus MNV-1 capsid protein VP1, D348E escape mutant (in purified virions) (natural protein, murine norovirus (MNV-1, genotype GV.1), UniProt Q80J94 1-541, looked up)
chain: B1 chain with I339V, D348E
notes: Capsid protein VP1 (~58 kDa; N-terminal, shell and protruding domains) of murine norovirus MNV-1, as it stands in the purified virion, with the escape mutation D348E on the C'D' loop; also called D348E virus; apo D348E; source: BV-2 cells infected with the MNV-1 mutant; virions purified (PEG precipitation, ultracentrifugation, sucrose gradient); copies: 180

Target: the molecule itself
Test: cryo-EM structure; purified virions, ~1 mg/mL, in 30 mM HEPES pH 7.4, 100 mM NaCl; nothing, CaCl2 or 10 mM GCDCA added (V339I), nothing added (D348E); icosahedral reconstruction of the capsid

Row | Protein | binding result
1 | B1 | binds
2 | B2 | binds

— publication PMC12172446, “Murine norovirus allosteric escape mutants mimic gut activation” (Journal of Virology, 2025)
